The data set can be described thus: label from the status in PepcDB records.
As to “MIKPTPVAGTSLDRVDGVAKVTGQARYAGEYPEVGLLHGSVVSSTIARGRVLNIDSTQAMRVPGVIAVLDHGHRPHISSYDDDYSDADAAQGAPFRPLFDDRVLYNGQPLALVVAQTLELARYAGSLIRIEYAEEAHQTDLGACQQSHAAPAETPPPRGDFAAQFARAPVQVDATYLTANEYHNPMEPHASTVLYKGDGTLEIHDKTQGTQNCQDYLHKVFGLPKANIRVRAAFVGGAFGSGLRPQYQLPLAVMAALHLQRSVRVTLTRQQMFTFGYRPRTEQRLRLGADANGQLLAIAHDALGQTSRFEDFTEHVVEWSGMLYQCDNVALSYRLASLDVYTPLDMRAPGAASGMIALECAMDELACAAQIDPLDLRRRNFAASNANEGKPYSSKELLTCYRQGAERFGWQNRNPQPRSMRHGNQLVGWGMAGGVWEAMQMKASAKARFDAQGHLTVSSATTDIGTGTYTVMTQIAADAAGARVQDVTFVLGDSSLPTAPLQGGSFTVSSVGSAVRQACQVLRTKVLEHARRMYPQVASTAREQIIFADGYLHAGSHRLALADIIASAPEGEFEVQIDAEPGARRQPFSTATHSAVFAEVHVDEDLGTIKVVRVVSAVAAGRVINPKTARSQILGGVVWGVGMALHEAALTDHRLGRIVNHNLAEYHIPVNADSGDIEVIFVEEHDDIVNELGSKGVGEIGVVGVAAAVANAVYHATGKRVREFPITLDKLLKDNSQV”, the protein production entry is “failed”.
Next, “MSIITRLFNNSDFEKLNQLCKLYDDLGYPTNENDLKKRLKKITNHDDYFLLLLIKENKIIGLSGMCKMMFYEKNAEYMRILAFVIHSEFRKKGYGKRLLADSEEFSKRLNCKAITLNSGNRNERLSAHKLYSDNGYV”: “failed”.
As for “MEEVSSEMEVEVQNRQLSDSSPAQNVKKFGLKNSIQTNFGSDYVFQIVPKIDWTAIAVSLSTNTVKLYSPVTGQYYGECKGHSDTVNQIAFSSDSAASPHVLHSCSSDGTIRSWDTRSFQQVSRIDTGNDQEIFSFSYGGAADNLLAGGCKEQVLLWDWRNSKQVACLEESHMDDVTQVHFVPNKPNKLLSASVDGLICLFNTEGDINDDDHLESVINVGTSIGKIGFLGDGYKKLWCLTHIETLSIWNWEDGSCEVNLEKARELASDSWTQDNVDYFVDCHCPGGEDLWVIGGTCAGTVGYFPVNYKQPGSIGTAEAILGGGHIDVVRSVLQMPGEYGGAAGLFGWTGGEDGRLCCWKSDEDATEINRSWTSSELVVKPPRNRKKNRHSPY”, the protein production result is “failed”.
As for “MGVALLLLVGGAELLVRSALRLAQRLHVRPLIIGLSLVAFGSTAPQLTVSLQAAYQGAPDVAVGSVIGSNIFNVLVILGLAALIIPLRVSRQLVRLDIPLMILASGLVYALSANAHLGRVEGALLLLGLAGYLAMLWHQSRHYARTYPAPDAARSGAGRFWSGTLLQILVGLGLLSLAGHLLLEAAIEVATDLGLSERIIGLTVVAICTSLPELAAALIAALRGEREIAVGTVIGSNLFNLLAVLGLTALITPEPLSISPNALSFDLPVMLGVAALSLPVFYSGYRITRAEGLVFLCLYLAYGLHVAAFTMGMPLAGRLERLMLFYVLPVLATVLLYTTVRAWRRQH”, the entry is “failed”.
With “MKIAIAGAGAMGSRLGIMLHQGGNDVTLIDQWPAHIEAIRKNGLIADFNGEEVVANLPIFSPEEIDHQNEQVDLIIALTKAQQLDAMFKAIQPMITEKTYVLCLLNGLGHEDVLEKYVPKENILVGITMWTAGLEGPGRVKLLGDGEIELENIDPSGKKFALEVVDVFQKAGLNPSYSSNVRYSIWRKACVNGTLNGLCTILDCNIAEFGALPVSESLVKTLISEFAAVAEKEAIYLDQAEVYTHIVQTYDPNGIGLHYPSMYQDLIKNHRLTEIDYINGAVWRKGQKYNVATPFCAMLTQLVHGKEELLGAK”, the protein production result is “not failed”.
As for “MFYITSKKVPFVTYSKNVFIPVTNICRNQCGYCGFRREPGQPGARLMKPEEVISVLENGVRAGCTEALFTFGERAEEVPGYGEMLEEIGYSSTLEYLVFLCETAIDIGILPHTNAGIMTRSELEALKPLNASMGLMLESTAVLAAHKDCPGKIPERRLETIREAGKLKIPYTTGLLIGIGESRDDRIESLEAIAALHREYGHIQEVIIQNFAPKPGTEMENFPEPAVEEMMDSVELAARILPGDVAVQVAPNLIDPKSLIAKGVTDLGGISPLTIDWINPEAEWPDVKNLQKKLGDIPLKERLPVYPPYVKKGWYSERIGSLIKRLEHHHHHH”, the entry is “failed”; as for “MSLSNKIFTHSLPMRYADFPTLVDALDYAALSSAGMNFYDRRCQLEDQLEYQTLKARAEAGAKRLLSLNLKKGDRVALIAETSSEFVEAFFACQYAGLVAVPLAIPMGVGQRDSWSAKLQGLLASCQPAAIITGDEWLPLVNAATHDNPELHVLSHAWFKALPEADVALQRPVPNDIAYLQYTSGSTRFPRGVIITHREVMANLRAISHDGIKLRPGDRCVSWLPFYHDMGLVGFLLTPVATQLSVDYLRTQDFAMRPLQWLKLISKNRGTVSVAPPFGYELCQRRVNEKDLAELDLSCWRVAGIGAEPISAEQLHQFAECFRQVNFDNKTFMPCYGLAENALAVSFSDEASGVVVNEVDRDILEYQGKAVAPGAETRAVSTFVNCGKALPEHGIEIRNEAGMPVAERVVGHICISGPSLMSGYFGDQVSQDEIAATGWLDTGDLGYLLDGYLYVTGRIKDLIIIRGRNIWPQDIEYIAEQEPEIHSGDAIAFVTAQEKIILQIQCRISDEERRGQLIHALAARIQSEFGVTAAIDLLPPHSIPRTSSGKPARAEAKKRYQKAYAASLNVQESLAEGHHHHHH”, “not failed”; as for “MASLGSAAAGEPATGAEAEPGPPAPPPPPPPPPAPSPSALGPLLPLQREPLYNWQATKASLKERFAFLFNSELLSDVRFVLGKGRGAAAAGGPQRIPAHRFVLAAGSAVFDAMFNGGMATTSAEIELPDVEPAAFLALLRFLYSDEVQIGPETVMTTLYTAKKYAVPALEAHCVEFLTKHLRADNAFMLLTQARLFDEPQLASLCLDTIDKSTVDAISAEGFTDIDIDTLCAVLERDTLSIRESRLFGAIVRWAEAECQRQQLAVTFGNKQKVLGKALSLIRFPLMTIEEFAAGPAQSGILSDREVVNLFLHFTVNPKPRVEYIDRPRCCLRGKECCINRFQQVESRWGYSGTSDRIRFTVNRRISVVGFGLYGSIHGPTDYQVNIQIIEYEKKQTLGQNDTGFSCDGTANTFRVMFKEPIEILPNVCYTACATLKGPDSHYGTKGLKKVVHETPAASKTVFLFFSSPGNNNGTSIEDGQIPEIIFYT”, “failed”.
As for “SAAPGPALCLFDVDGTLTAPRQKITKEMDDFLQKLRQKIKIGVVGGSDFEKVQEQLGNDVVEKYDYVFPENGLVAYKDGKLLCRQNIQSHLGEALIQDLINYCLSYIAKIKLPKKRGTFIEFRNGMLNVSPIGRSCSQEERIEFYELDKKENIRQKFVADLRKEFAGKGLTFSIGGQISFDVFPDGWDKRYCLRHVENDGYKTIYFFGDKTMPGGNDHEIFTDPRTMGYSVTAPEDTRRICELLFS”, the entry is “not failed”; as for “MMRKHFLSRSSLRAIVLCVSLGTLSAQAVSVPNAIAQSSLPASPLDSFYSSIPSGENTVAGTVLSEQVIPTGLLDATIKVKRIAYSSTHPSGRMVPTIATILTPTAPWTGSGPRPAALLAPGTQGAGDQCAPSKLITVGAEYELFPAIMLLRRGWTVAITDYQGLGTIGAHTYMNRKAQGAALLDLGRAVVNVKYPEVRKDAPLILWGYSQGGGASAAAAEMHASYAPDVNIRGGFAGGVPAELLATARSLEGSPLLGALGYAISGMYETHPELRLEVDDLLNDRGKQWIIDSGTHCLLDSFRTMPIPDSRVMTRSGQRLTDLLGSKVFHSYFEEQRLGKVAPDVPMFVSQGANDDIIPAQQARDMVSNWRDLGADVTYFEDPAPLLVRMEGHVRPLVTSFDPALQWAEKLLGSEVINPPSAS”, “failed”.
Next, “SDDDNPTVDPANIDYTPENASSWHNYMRNVAALLKTDATNLYNAWNSSYKGGESYASLFKAHSGSPYASALSCVEEIVDKCAEIANEVGTAKIGDPYNLYKAGNTEEALYAVESWYSWHSRDDYTNNIYSIRNAYYGSLDGNINANSLSTVIAGANSSLDTKIKNAIQKAAKAIQDIPQPFRNHIPSNETVAAMDACAELESILKNDLKSYIANNSNNINTDAVLNPVVTQYVDAVVVPTYKSLKEKNDALYNAVIVLADNPSNSAFETACDAWITAREPWEKSEAFLFGPVDEMGLDPNMDSWPLDQNAIVQILNSQSWSDLEWSEGDDEAAVESAQNVRGFHTLEFLLYKNGEPRKVQ”: “not failed”; “MQRANREHLEIISLEEISMLVSSDFDLPEVLQHVTAKVATQLKVSVCNIYLREGDEVVLAATHGFDPAFIGKIRIKIGDGITGSVARDGQYISLSRASQDPRYRYFPELQEEKYNSMLSFPIGDKKEVYGVINLNTTSIRSFHEDEIYFVSIIANLILTAIKLRQQVASSRKAAEA”: “not failed”; “MKEGTGMVVRSSEITPERISNMRGGKGEVEMAHLLSKEAMHNKARLFARMKLPPGSSVGLHKHEGEFEIYYILLGEGVFHDNGKDVPIKAGDVCFTDSGESHSIENTGNTDLEFLAVIILL”: “not failed”.
“MVNVDHDRFTTLVHELNQAKYEFHYKCAELVSNHEAAQPKKVLDEKKMDLEKLYEKVKEVMKKMVAFAENPKKEG”: the protein production entry is listed as “failed”.
Next, “MLKELFVNLTILITFNYLFTHLFKERLVHKKDSISFQAVKGLACGLLGVILMVFGFTYQHSIIDLRNIPIMIAALYGGWVSTATALAMITAGRLLITMNTSALYSVIIICIAAIPSLIVSRRKKVQLKHAFYLLIITNSLISFSFYFLIDLHSYELHLYFWIISIAGGMLSLYIIDHETNAHLLFKQYKFQAHFDFLTGVYNRRKFEETTKALYQQAADTPHFQFALIYMDIDHFKTINDQYGHHEGDQVLKELGLRLKQTIRNTDPAARIGGEEFAVLLPNCSLDKAARIAERIRSTVSDAPIVLTNGDELSVTISLGAAHYPNNTEQPGSLPILADQMLYKAKETGRNRVCFSEKKE”: “failed”; “MAKPPTTIEVSPTITLPQQDPSLMGVTVSINGADQRTDQALAKVTRDNQIVTLTASRDLRFLLQEVLEKQMTARGYMVGPNGPVNLQIIVSQLYADVSQGNVRYNIATKADIAIIATAQNGNKMTKNYRASYNVEGAFQASNKNIADAVNSVLTDTIADMSQDTSIHEFIKQNARLEHHHHHH”: “not failed”; “MTVETFHPKQTTTLETPAKTLEAASADSVNTGNVATGNRIGFVSLGCPKNLVDSERILTQLRIDGYEVTNSYDNADLVIVNTCGFIDAAVEESLDAVREALEENGKVIVTGCLGAKENQIREVHPDVLEITGPHSYEAVLKHVHKYVPKPEHNPFTSLIPQTGVKLTPKHYAYLKISEGCDNRCTFCIIPALRGDLDSRGAGSVLDEAKRLVEAGVQEILVVSQDTSAYGKDKGGRTDFWNGMPVKQDITSLARQLGKMGAWVRLHYIYPYPWVDDLIPLMAEGLILPYLDIPMQHASPRILKMMKRPGRVDRQLEAIQRWREICPDLVIRSTFIVGFPGETEEDFEMLLDFLREARLDRVGCFKYSEVEGAVANTIAELISEEVKEDRYHRFMEVQAEISAERLARFVGRTMDILIDDVDEEGAIGRSFADAPEIDGMVFINGETELEPGMLVRAVITHSDEHDLWAELVDADAEDEVEALEHHHHHH”: “not failed”.
Next, “MSSEVQKGPRALTVGRGDGRIWGMSSAERLARIYRRLDLVETPAVDLSHPVVAVDAGWVFDESLIKALAGREGAVLVDDAGRAVAVHAPADLAYAASEALAAGNDPAGLDPRFTRLTALELGSAYNSALRKREPPVLERLTPETVRAVEKRLFQGSYKGVTDFVTKYVWPAPARVVTRWCALAKMTPNQVTFIGFVMVLAATWLFWHGHFGWGLVCAWIMTFLDTVDGKLARVTLTSSKWGNVFDHGIDLVHPPFWWWAWFVGVYAVGQEIPYAALSLAIVVGGYVAQRVEEGIFLALFKLEMHAWRPFDSFFRLITARRNPNLILLTGCAMVGRPDLGFTLVAIWTAVCFVVHAIQILQGLMAPKGSIQSWLAK”: “failed”; “ASIVGSWVEPVPGLEGQVQGIKMEEGGVASSVNMATLVYESWKQEGTKLILTGKSIGNGQTIEFVDTMDIKRLTADSLVLDNQGMEIRYAKQK”: “not failed”.
